± gives the standard error. Variants at the floor of the assay were thinned out.
B1: glmS ribozyme (parent)
chain: AUAAAAGCGCCAGAACUACAGAAAUGUAGUUGACGAGGAGGAGGUUUAUCGAAUUUUCGGCGGAUGCCUCCAAA

What was measured:
Conditions in all cases: with glucosamine-6-phosphate
glucosamine-6-phosphate [1] = variants of: B1; assay: self-cleavage kobs at 40 uM GlcN6P; higher = faster cleavage; RNA array
Summary of the method: (§1)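 Glucosamine-6-phosphate, from 40 μM to 10 mM in HEPES/KCl/Mg(OAc)2 buffer, was flowed over sequenced MiSeq chips carrying barcoded ribozyme variants transcribed in situ by E. coli RNA polymerase. A hybridised Cy3 probe tracked the variants at 37 °C as tiles were imaged over ~14 h. kobs, kcat and KM were obtained by fitting normalised per-tile medians to exponential decays and then applying weighted Michaelis–Menten fits across concentrations.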

glucosamine-6-phosphate [2] = variants of: B1; assay: self-cleavage kobs at 10000 uM GlcN6P; higher = faster cleavage; RNA array
Summary of the method: as §1

glucosamine-6-phosphate [3] = variants of: B1; assay: self-cleavage kobs at 160 uM GlcN6P; higher = faster cleavage; RNA array
Summary of the method: as §1

glucosamine-6-phosphate [4] = variants of: B1; assay: self-cleavage kobs at 640 uM GlcN6P; higher = faster cleavage; RNA array
Summary of the method: as §1

glucosamine-6-phosphate [5] = variants of: B1; assay: self-cleavage kobs at 2500 uM GlcN6P; higher = faster cleavage; RNA array
Summary of the method: as §1

Row | Variant | self-cleavage kobs at 40 uM GlcN6P (glucosamine-6-phosphate [1]) [s⁻¹] | self-cleavage kobs at 10000 uM GlcN6P (glucosamine-6-phosphate [2]) [s⁻¹] | self-cleavage kobs at 160 uM GlcN6P (glucosamine-6-phosphate [3]) [s⁻¹] | self-cleavage kobs at 640 uM GlcN6P (glucosamine-6-phosphate [4]) [s⁻¹] | self-cleavage kobs at 2500 uM GlcN6P (glucosamine-6-phosphate [5]) [s⁻¹]
1 | AUAAAAGCGCCCGAACUACAGAAAUGUAGUUGACGAGGAGGAUGUUUAUCGAAUUUUCGGCGGAUGCCUACAAA [A12C G43U C70A] | < 1e-05 | < 1e-05 |  |  | 
2 | AUAAAAGCGCCAGAACUACAGAAAUGUAGUUGAAGAGGAGGAGGUUUAUGGAAUUUUCGGCGGAUGCGUCCAAA [C34A C50G C68G] | 0.000116 ± 2.4e-05 | 6.65e-05 ± 1.4e-05 |  |  | 
3 | AUAAAUGCGCCAGAACUACAGAAAUGUAGUUGUCGAGUAGGAGGUUUAUCGAAUUUUCGGCGGAUGCCUCCAAA [A6U A33U G38U] | < 1e-05 |  | < 1e-05 | < 1e-05 | 
4 | AUAAAAGCGCGAGAACUACAGAAAUGUAGUUGACGAGGAGGAGGUUUAACGAAUUUUCGGCGGAUGCCUCCAAA [C11G U49A] | < 1e-05 |  | < 1e-05 | < 1e-05 | < 1e-05
5 | AUAAAAGCGCCAUAACUACAGAAAUGUAGUUGACGAGGAUGAGGUUUCUCGAGUUUGCGGCGGAUGCCUCCAAA [G13U G40U A48C A53G U57G] | < 1e-05 |  |  |  | 
6 | AUAAAAGCACCAGAACUACAGAAAUGUAGUUGACGAGGAGGAGGUUUAUGGAAUUUUCGGCGGAUGCCUCCAAA [G9A C50G] | 0.000112 ± 1.8e-05 | 9.95e-05 ± 1.1e-05 | 0.000137 ± 3.9e-05 | 0.00113 ± 0.00048 | 
7 | AUAAAAGCGCCAGAACUACAGAAAUGUAGUUGACCAGGAGGAGGUUUAUCGAAUUUUCGGCGGAUGCAUCCAAA [G35C C68A] | < 1e-05 | < 1e-05 | < 1e-05 | < 1e-05 | < 1e-05
8 | AUAAAAGCGCCAGAACUACAGAAAUGUAGUUGACGAGGAGGAGGUUUAUCGAAUUUUCAUCGGAUGCCUCCAAA [G59A G60U] | < 1e-05 | < 1e-05 |  | < 1e-05 | < 1e-05
9 | AUAAAAUCGCUAGAACUACAGAAAUGUAGUUGUCGAGGACGAGGUUUAUCGAAUUUUCGGCGGAUGCCUCCAAA [G7U C11U A33U G40C] | < 1e-05 | < 1e-05 |  |  | < 1e-05
10 | AUAAAAGCGCCAGAACUACAGAAAUGUAGUUGACGAGGAGGCGGUUUCUCGAAUUUUCGGCGGAUGCCUCCAAA [A42C A48C] | < 1e-05 | < 1e-05 |  | < 1e-05 | < 1e-05
11 | AUAAAAGCGCCAGAACUACAGAAAUGUAGUUGACGAGGAGGAGGUUUAUCGAAUUUUCGGCGGAUGCCUCCAUA [A73U] | 0.00108 ± 0.00026 | 0.0245 ± 0.0093 |  |  | 0.00477 ± 0.0019
12 | AUAAAAGCGCCAGAACUACAGAAAUGUAGCUGACGAGGAGGAGGUUUAACGAAUUUUCGGCGGAUGCCUCCAAA [U30C U49A] | < 1e-05 |  | < 1e-05 | < 1e-05 | 

— the supplement of paper PMC7125110
